The text below walks through data of patent US6759384 (AVENTIS PHARMACEUTICALS, dated 2004).

Non-standard residues stand in square brackets, D forms with d. No end group written: not given here. *: point of attachment. (pOH)C6H4‑OCH(CH3)CO = N-terminal acyl cap: 4-hydroxyphenyl-O-CH(CH3)-C(=O)- (2-(4-hydroxyphenoxy)propionyl), CC(Oc1ccc(O)cc1)C(=O)*; (pOH)C6H4‑CH2CHOH‑CO = N-terminal acyl cap: 4-hydroxyphenyl-CH2-CH(OH)-C(=O)- (4-hydroxyphenyllactyl); Phe(4-Cl) = N[C@@H](Cc1ccc(Cl)cc1)C(=O)O; Phe(4-F) = N[C@@H](Cc1ccc(F)cc1)C(=O)O; dTic = O=C(O)[C@H]1Cc2ccccc2CN1; Dab = NCC[C@H](N)C(=O)O; βAla = NCCC(=O)O; Sar = CNCC(=O)O; For = O=C*

The target in the experiment is human factor Xa (Enzyme Research Laboratories, Inc.) (human, UniProt P00742 41-179; P00742 235-488, limits assumed). As to the kind of experiment: chromogenic FXa inhibition. The protocol:
TBS-P buffer (50 mM Tris-Cl, pH 7.8, 200 mM NaCl, 0.05% (w/v) PEG-8000, 0.02% (w/v) NaN_3) was used for this assay. The IC$50$ was determined by combining in appropriate wells of a Costar half-area microtiter plate 25 μl human factor Xa (Enzyme Research Laboratories, Inc.; South Bend Ind.) in TBS-P; 40 μl 10% (v/v) DMSO in TBS-P (uninhibited control) or various concentrations of a peptide to be tested diluted in 10% (v/v) DMSO in TBS-P; and substrate S-2765 (Nα-benzyloxycarbonyl-D-Arg-Gly-L-Arg-p-nitroanilide; Kabi Pharmacia, Inc.; Franklin Ohio) in TBS-P.
The assays were performed by pre-incubating the peptide inhibitor plus enzyme for 10 min, then the assay was initiated by adding substrate to obtain a final volume of 100 μl. The initial velocity of chromogenic substrate hydrolysis was measured by the change in absorbance at 405 nm using a Bio-tek Instruments kinetic plate reader (Ceres UV900HDi) at 25° C. during the linear portion of the time course (usually 1–5 min after addition of substrate). The concentration of inhibitor that caused a 50% decrease in the rate of substrate hydrolysis was predicted by linear regression after plotting the relative rates of hydrolysis (compared to the uninhibited control) versus the log of the peptide concentration. The enzyme concentration was 0.5 nM and substrate concentration was 140 μM.

Chain of human factor Xa (Enzyme Research Laboratories, Inc.) (P00742 41-179 limits assumed, chain 1 of 2): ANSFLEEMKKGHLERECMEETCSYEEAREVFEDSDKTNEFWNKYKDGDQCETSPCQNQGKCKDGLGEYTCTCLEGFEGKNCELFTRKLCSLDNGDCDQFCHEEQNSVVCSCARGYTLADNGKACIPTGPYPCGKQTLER
Chain of human factor Xa (Enzyme Research Laboratories, Inc.) (P00742 235-488 limits assumed, chain 2 of 2): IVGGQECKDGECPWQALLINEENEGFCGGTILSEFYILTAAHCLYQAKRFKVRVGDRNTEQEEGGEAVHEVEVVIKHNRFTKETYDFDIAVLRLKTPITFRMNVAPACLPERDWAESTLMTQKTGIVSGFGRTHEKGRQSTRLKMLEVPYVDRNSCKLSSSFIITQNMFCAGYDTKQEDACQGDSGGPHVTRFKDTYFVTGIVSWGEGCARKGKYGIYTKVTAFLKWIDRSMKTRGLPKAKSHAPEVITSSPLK

In the case of XIRLP (N,N-diethyl (Et(Et)) on Y1; C-term NH2) [Et(Et)Y-I-R-L-P-NH2], the Ki was less than 100 µM.
The figure for Ac-YIRLAAFT-NH2 [Ac-Y-I-R-L-A-A-F-T-NH2] is less than 100 µM; for GYIRLPQT-NH2 [G-Y-I-R-L-P-Q-T-NH2] it is less than 100 µM; for {CH3O‑CO}-YIRLP-NH2 [CH3O-CO-Y-I-R-L-P-NH2] it is less than 100 µM.
The figure for YIRLP (N-term Ac; D-Tyr at 1; C-term NH2) [Ac-y-I-R-L-P-NH2] is less than 100 µM.

B1: Ac-Y-I-R-L-P-Dab(Ac-Y-I-R-L-P)-OH (peptide)
peptide: Ac-YIRLP[Dab]-OH
chain: Ac-YIRLP
modifications: also: branched: chain 2 attached to the Dab6 side-chain N
notes: branched peptide
B1 yielded an inhibition constant (Ki) of less than 100 µM.
The figure for {CH3CH2‑O‑CO}-YIRLP-NH2 [CH3CH2-O-CO-Y-I-R-L-P-NH2] is less than 100 µM.
The figure for FIRLYVWN-NH2 [F-I-R-L-Y-V-W-N-NH2] is less than 100 µM; for [βAla]YIRG (also: cyclisation unknown (underlining lost), may be cyclic; underlining lost) [βAla-Y-I-R-G] it is less than 100 µM; for Cl2CHCO-YIRLP-NH2 [Cl2CHCO-Y-I-R-L-P-NH2] it is less than 100 µM.
The figure for EYIRLPK-NH2 (also: cyclisation unknown (underlining lost), may be cyclic; underlining lost) [E-Y-I-R-L-P-K-NH2] is less than 100 µM; for IQLGYIRLP-NH2 [I-Q-L-G-Y-I-R-L-P-NH2] it is less than 100 µM; for GYIRD-NH2 [G-Y-I-R-D-NH2] it is less than 100 µM.
With GYIRY-NH2 [G-Y-I-R-Y-NH2], the Ki is less than 100 µM.
As to GYIRF-NH2 [G-Y-I-R-F-NH2], the Ki was less than 100 µM.
The figure for GYIRS-NH2 [G-Y-I-R-S-NH2] is less than 100 µM; for GYIRV-NH2 [G-Y-I-R-V-NH2] it is less than 100 µM; for GYIRW-NH2 [G-Y-I-R-W-NH2] it is less than 100 µM.
The figure for {CF2H‑CO}-YIRLP-NH2 [CF2H-CO-Y-I-R-L-P-NH2] is less than 100 µM; for {(pOH)C6H4‑CH2CH2CO}-IRLA-NH2 [(pOH)C6H4-CH2CH2CO-I-R-L-A-NH2] it is less than 100 µM.

B2: (pOH)C6H4-OCH(CH3)CO-I-R-L-P-NH2 (peptide)
peptide: {(pOH)C6H4‑OCH(CH3)CO}-IRLP-NH2
SMILES: CC[C@H](C)[C@H](NC(=O)C(C)Oc1ccc(O)cc1)C(=O)N[C@@H](CCCNC(=N)N)C(=O)N[C@@H](CC(C)C)C(=O)N1CCC[C@H]1C(N)=O
On to B2, for which the Ki was less than 100 µM.
The figure for {(pOH)C6H4‑CH2CHOH‑CO}-IRLP-NH2 [(pOH)C6H4-CH2CHOH-CO-I-R-L-P-NH2] is less than 100 µM; for {(pOH)C6H4‑OCH2CO}-IRLP-NH2 [(pOH)C6H4-OCH2CO-I-R-L-P-NH2] it is less than 100 µM; for IRLP (N-term (pOH)C6H4-CH2CH2CO; C-term NH2) [(pOH)C6H4-CH2CH2CO-I-R-L-P-NH2] it is less than 100 µM.

B3: F(pF)-I-R-L-P-NH2 (peptide)
peptide: [Phe(4-F)]IRLP-NH2
modifications: N-terminus assumed
SMILES: CC[C@H](C)[C@H](NC(=O)[C@@H](N)Cc1ccc(F)cc1)C(=O)N[C@@H](CCCNC(=N)N)C(=O)N[C@@H](CC(C)C)C(=O)N1CCC[C@H]1C(N)=O
notes: also called Phe(pF)-I-R-L-P-NH
In the case of B3, the Ki was less than 100 µM.

B4: D-Tic-I-R-L-A-A-F-T-NH2 (peptide)
peptide: [dTic]IRLAAFT-NH2
modifications: N-terminus assumed
SMILES: CC[C@H](C)[C@H](NC(=O)[C@H]1Cc2ccccc2CN1)C(=O)N[C@@H](CCCNC(=N)N)C(=O)N[C@@H](CC(C)C)C(=O)N[C@@H](C)C(=O)N[C@@H](C)C(=O)N[C@@H](Cc1ccccc1)C(=O)N[C@H](C(N)=O)[C@@H](C)O
With B4, the Ki is less than 100 µM.
Under {CH3‑CHCl‑CO}-YIRLP-NH2 [CH3-CHCl-CO-Y-I-R-L-P-NH2] stands less than 100 µM.

B5: F(pCl)-I-R-I-Sar-NH2 (peptide)
peptide: [Phe(4-Cl)]IRI[Sar]-NH2
modifications: N-terminus assumed
SMILES: CC[C@H](C)[C@H](NC(=O)[C@@H](N)Cc1ccc(Cl)cc1)C(=O)N[C@@H](CCCNC(=N)N)C(=O)N[C@H](C(=O)N(C)CC(N)=O)[C@@H](C)CC
In turn, B5 yielded a Ki of less than 100 µM.
Under Ac-YKRLE-NH2 (also: cyclisation unknown (underlining lost), may be cyclic; underlining lost) [Ac-Y-K-R-L-E-NH2] stands less than 100 µM; under {4‑MeO‑C6H4‑CO}-IRLA-NH2 [4-MeO-C6H4-CO-I-R-L-A-NH2], less than 100 µM.
The figure for {Ph‑CH═CH‑CO}-IRLA-NH2 [Ph-CH═CH-CO-I-R-L-A-NH2] is less than 100 µM.
Under GGYIRG-NH2 [G-G-Y-I-R-G-NH2] stands less than 100 µM; under For-[dY]IRLP-NH2 [For-y-I-R-L-P-NH2], less than 100 µM.
Molecule GYIRLPSQ-NH2 [G-Y-I-R-L-P-S-Q-NH2] gave a Ki of less than 100 µM.
Under NGYIRLIH-NH2 [N-G-Y-I-R-L-I-H-NH2] stands less than 100 µM.

B6: C-Y-I-R-L-C-NH2 (peptide)
peptide: CYIRLC-NH2
modifications: also: cyclisation unknown (underlining lost)
notes: may be cyclic (disulfide); underlining lost
As for B6, the Ki was less than 100 µM.

B7: βAla-Y-I-R-G-NH2 (peptide)
peptide: [βAla]YIRG-NH2
modifications: N-terminus assumed
SMILES: CC[C@H](C)[C@H](NC(=O)[C@H](Cc1ccc(O)cc1)NC(=O)CCN)C(=O)N[C@@H](CCCNC(=N)N)C(=O)NCC(N)=O
Molecule B7 returned a Ki of less than 100 µM.
Under {CClF2‑CO}-YIRLP-NH2 [CClF2-CO-Y-I-R-L-P-NH2] stands less than 100 µM; under GYIRLPAM-NH2 [G-Y-I-R-L-P-A-M-NH2], less than 100 µM.
Under {Ph‑CH2CH2CH2‑CO}-IRLA-NH2 [Ph-CH2CH2CH2-CO-I-R-L-A-NH2] stands less than 100 µM.
Under YIRI-NH2 [Y-I-R-I-NH2] stands less than 100 µM; under FIRLPHYG-NH2 [F-I-R-L-P-H-Y-G-NH2], less than 100 µM; under IHLWYIRLP-NH2 [I-H-L-W-Y-I-R-L-P-NH2], less than 100 µM.

B8: I-H-L-W-y-I-R-L-P-NH2 (peptide)
peptide: IHLW[dY]IRLP-NH2
modifications: N-terminus assumed
SMILES: CC[C@H](C)[C@H](N)C(=O)N[C@@H](Cc1c[nH]cn1)C(=O)N[C@@H](CC(C)C)C(=O)N[C@@H](Cc1c[nH]c2ccccc12)C(=O)N[C@H](Cc1ccc(O)cc1)C(=O)N[C@H](C(=O)N[C@@H](CCCNC(=N)N)C(=O)N[C@@H](CC(C)C)C(=O)N1CCC[C@H]1C(N)=O)[C@@H](C)CC
On to B8, for which the Ki is less than 100 µM.
The figure for {CH3‑SO2}-YIRLP-NH2 [CH3-SO2-Y-I-R-L-P-NH2] is less than 100 µM; for For-YIRLP-NH2 [For-Y-I-R-L-P-NH2] it is less than 100 µM.
In turn, {CF3‑CF2CO}-YIRLP-NH2 [CF3-CF2CO-Y-I-R-L-P-NH2] returned a Ki of less than 100 µM.
For the molecule GYIRLPPV-NH2 [G-Y-I-R-L-P-P-V-NH2], the Ki is less than 100 µM.
The figure for EYIRLK-NH2 (also: cyclisation unknown (underlining lost), may be cyclic; underlining lost) [E-Y-I-R-L-K-NH2] is less than 100 µM.
